Experimental data: patent US7033590 (BAXTER AKTIENGESELLSCHAFT, dated 2006)
Non-standard residues stand in square brackets, D forms with d. No end group written: not given here.

Columns and labels:
[1] = target: T1, human activated factor IX (human FIXa) (human, UniProt P00740 47-191; P00740 227-461); test: cell-based or functional assay
[2] = target: T1, human activated factor IX (human FIXa); test: cell-based or functional assay; remark: listed apart in the source
[3] = target: T1, human activated factor IX (human FIXa); test: cell-based or functional assay; remark: listed apart in the source
[4] = target: T2, human coagulation factor (F) IX (human, UniProt P00740 47-461); test: Western blot and ELISA
T2 construct: also called Factor IX; factor IX
T2 sequence (P00740 47-461 limits assumed): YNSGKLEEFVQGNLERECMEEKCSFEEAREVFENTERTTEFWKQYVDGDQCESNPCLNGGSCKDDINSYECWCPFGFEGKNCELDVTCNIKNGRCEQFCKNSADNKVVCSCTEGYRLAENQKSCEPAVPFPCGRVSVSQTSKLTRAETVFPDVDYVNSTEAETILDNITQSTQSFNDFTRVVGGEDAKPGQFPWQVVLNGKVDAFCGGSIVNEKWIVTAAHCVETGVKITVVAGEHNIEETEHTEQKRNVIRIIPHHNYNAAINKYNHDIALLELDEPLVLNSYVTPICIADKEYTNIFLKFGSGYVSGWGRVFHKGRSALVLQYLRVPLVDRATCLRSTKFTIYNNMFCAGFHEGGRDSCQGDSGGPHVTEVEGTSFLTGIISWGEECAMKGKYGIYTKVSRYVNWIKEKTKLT

| clotting time, aPTT one-stage assay (Table 4), 2.2 nM FIXa, peptide 1.25 µM, average (IZ buffer 96) [2] [s] | clotting time, aPTT one-stage assay (Table 4), 2.2 nM FIXa, peptide 1.25 µM, duplicate 1 (IZ buffer 96) [2] [s] | clotting time, aPTT one-stage assay (Table 4), 2.2 nM FIXa, peptide 1.25 µM, duplicate 2 (IZ buffer 96) [2] [s] | clotting time, aPTT one-stage assay (Table 4), 2.2 nM FIXa, peptide 2.5 µM, average (IZ buffer 96) [2] [s] | clotting time, aPTT one-stage assay (Table 4), 2.2 nM FIXa, peptide 2.5 µM, duplicate 1 (IZ buffer 96) [2] [s] | clotting time, aPTT one-stage assay (Table 4), 2.2 nM FIXa, peptide 2.5 µM, duplicate 2 (IZ buffer 96) [2] [s] | clotting time, aPTT one-stage assay (Table 4), 2.2 nM FIXa, peptide 5 µM, average (IZ buffer 96) [2] [s] | clotting time, aPTT one-stage assay (Table 4), 2.2 nM FIXa, peptide 5 µM, duplicate 1 (IZ buffer 96) [2] [s] | clotting time, aPTT one-stage assay (Table 4), 2.2 nM FIXa, peptide 5 µM, duplicate 2 (IZ buffer 96) [2] [s] | clotting time, aPTT one-stage assay (Table 4), 2.2 nM FIXa, peptide 7.5 µM, average (IZ buffer 96) [2] [s] | clotting time, aPTT one-stage assay (Table 4), 2.2 nM FIXa, peptide 7.5 µM, duplicate 1 (IZ buffer 96) [2] [s] | clotting time, aPTT one-stage assay (Table 4), 2.2 nM FIXa, peptide 7.5 µM, duplicate 2 (IZ buffer 96) [2] [s] | clotting time, aPTT one-stage assay (Table 4), 2.2 nM FIXa, peptide 10 µM, average (IZ buffer 96) [2] [s] | clotting time, aPTT one-stage assay (Table 4), 2.2 nM FIXa, peptide 10 µM, duplicate 1 (IZ buffer 96) [2] [s] | clotting time, aPTT one-stage assay (Table 4), 2.2 nM FIXa, peptide 10 µM, duplicate 2 (IZ buffer 96) [2] [s] | clotting time, aPTT one-stage assay (Table 4), 2.2 nM FIXa, peptide 12.5 µM, average (IZ buffer 96) [2] [s] | clotting time, aPTT one-stage assay (Table 4), 2.2 nM FIXa, peptide 12.5 µM, duplicate 1 (IZ buffer 96) [2] [s] | clotting time, aPTT one-stage assay (Table 4), 2.2 nM FIXa, peptide 12.5 µM, duplicate 2 (IZ buffer 96) [2] [s] | clotting time, aPTT one-stage assay (Table 4), 2.2 nM FIXa, peptide 15 µM, average (IZ buffer 96) [2] [s] | clotting time, aPTT one-stage assay (Table 4), 2.2 nM FIXa, peptide 15 µM, duplicate 1 (IZ buffer 96) [2] [s] | Molecule | other results |
| --- | --- | --- | --- | --- | --- | --- | --- | --- | --- | --- | --- | --- | --- | --- | --- | --- | --- | --- | --- | --- | --- |
| 95 | 94.4 | 95 | 93 | 93.6 | 93.3 | 89 | 89.7 | 88.3 | 81 | 80.7 | 80.5 | 73 | 72 | 73.2 | 67 | 65 | 68 | 56 | 56.1 | RRREGGGYYVNWYFDRRR [peptide A1/3] | clotting time, aPTT one-stage assay (Table 4), 2.2 nM FIXa, peptide 15 µM, duplicate 2 (IZ buffer 96) [2]: 55.5 s |
| 96 | 96.6 | 96 | 95 | 94.4 | 94.7 | 86 | 86 | 85.1 | 82 | 80.9 | 82.2 | 76 | 74.2 | 77.2 | 73 | 72.3 | 73.7 | 75 | 76.1 | [dR][dR][dR]EGGGYYVNWYFD[dR][dR][dR] [peptide A1/3-Rd] | clotting time, aPTT one-stage assay (Table 4), 2.2 nM FIXa, peptide 15 µM, duplicate 2 (IZ buffer 96) [2]: 74.4 s |
| 103 | 101 | 105 | 105 | 105 | 104 | 108 | 108 | 108 | 107 | 108 | 107 | 108 | 107 | 108 | 108 | 108 | 108 | 113 | 113 | [dR][dR][dR]GEYGVYWNGDFY[dR][dR][dR] [peptide A1/3-Rd-srmb] | clotting time, aPTT one-stage assay (Table 4), 2.2 nM FIXa, peptide 15 µM, duplicate 2 (IZ buffer 96) [2]: 112 s |

Further lines, the molecule ahead of its results:

| Molecule | clotting time, aPTT one-stage assay (Table 4), 2.2 nM FIXa, peptide 1.25 µM, average (IZ buffer 96) [2] [s] | clotting time, aPTT one-stage assay (Table 4), 2.2 nM FIXa, peptide 1.25 µM, duplicate 1 (IZ buffer 96) [2] [s] | clotting time, aPTT one-stage assay (Table 4), 2.2 nM FIXa, peptide 1.25 µM, duplicate 2 (IZ buffer 96) [2] [s] | clotting time, aPTT one-stage assay (Table 4), 2.2 nM FIXa, peptide 2.5 µM, average (IZ buffer 96) [2] [s] | clotting time, aPTT one-stage assay (Table 4), 2.2 nM FIXa, peptide 2.5 µM, duplicate 1 (IZ buffer 96) [2] [s] | clotting time, aPTT one-stage assay (Table 4), 2.2 nM FIXa, peptide 2.5 µM, duplicate 2 (IZ buffer 96) [2] [s] | clotting time, aPTT one-stage assay (Table 4), 2.2 nM FIXa, peptide 5 µM, average (IZ buffer 96) [2] [s] | clotting time, aPTT one-stage assay (Table 4), 2.2 nM FIXa, peptide 5 µM, duplicate 1 (IZ buffer 96) [2] [s] | clotting time, aPTT one-stage assay (Table 4), 2.2 nM FIXa, peptide 5 µM, duplicate 2 (IZ buffer 96) [2] [s] | clotting time, aPTT one-stage assay (Table 4), 2.2 nM FIXa, peptide 7.5 µM, average (IZ buffer 96) [2] [s] | clotting time, aPTT one-stage assay (Table 4), 2.2 nM FIXa, peptide 7.5 µM, duplicate 1 (IZ buffer 96) [2] [s] | clotting time, aPTT one-stage assay (Table 4), 2.2 nM FIXa, peptide 7.5 µM, duplicate 2 (IZ buffer 96) [2] [s] | clotting time, aPTT one-stage assay (Table 4), 2.2 nM FIXa, peptide 10 µM, average (IZ buffer 96) [2] [s] | clotting time, aPTT one-stage assay (Table 4), 2.2 nM FIXa, peptide 10 µM, duplicate 1 (IZ buffer 96) [2] [s] | clotting time, aPTT one-stage assay (Table 4), 2.2 nM FIXa, peptide 10 µM, duplicate 2 (IZ buffer 96) [2] [s] | clotting time, aPTT one-stage assay (Table 4), 2.2 nM FIXa, peptide 12.5 µM, average (IZ buffer 96) [2] [s] | clotting time, aPTT one-stage assay (Table 4), 2.2 nM FIXa, peptide 12.5 µM, duplicate 1 (IZ buffer 96) [2] [s] | clotting time, aPTT one-stage assay (Table 4), 2.2 nM FIXa, peptide 12.5 µM, duplicate 2 (IZ buffer 96) [2] [s] | clotting time, aPTT one-stage assay (Table 4), 2.2 nM FIXa, peptide 15 µM, average (IZ buffer 96) [2] [s] | clotting time, aPTT one-stage assay (Table 4), 2.2 nM FIXa, peptide 15 µM, duplicate 1 (IZ buffer 96) [2] [s] | other results |
| --- | --- | --- | --- | --- | --- | --- | --- | --- | --- | --- | --- | --- | --- | --- | --- | --- | --- | --- | --- | --- | --- |
| Factor VIII (from UniProt P00451 20-2351) |  |  |  |  |  |  |  |  |  |  |  |  |  |  |  |  |  |  |  |  | clotting time, aPTT one-stage (Pathromtin SL), FVIII deficient plasma, 2.2 nM human FIXa, FVIII 6.25 mU/ml, average (IZ buffer 108) [1]: 59 s; clotting time, aPTT one-stage (Pathromtin SL), FVIII deficient plasma, 2.2 nM human FIXa, FVIII 6.25 mU/ml, duplicate 1 (IZ buffer 107.9) [1]: 58.6 s; clotting time, aPTT one-stage (Pathromtin SL), FVIII deficient plasma, 2.2 nM human FIXa, FVIII 6.25 mU/ml, duplicate 2 (IZ buffer 108.7) [1]: 58.9 s; clotting time, aPTT one-stage (Pathromtin SL), FVIII deficient plasma, 2.2 nM human FIXa, FVIII 12.5 mU/ml, average (IZ buffer 108) [1]: 53 s; clotting time, aPTT one-stage (Pathromtin SL), FVIII deficient plasma, 2.2 nM human FIXa, FVIII 12.5 mU/ml, duplicate 1 (IZ buffer 107.9) [1]: 52.9 s; clotting time, aPTT one-stage (Pathromtin SL), FVIII deficient plasma, 2.2 nM human FIXa, FVIII 12.5 mU/ml, duplicate 2 (IZ buffer 108.7) [1]: 53.6 s |
| unspecific mouse IgG (antibody) |  |  |  |  |  |  |  |  |  |  |  |  |  |  |  |  |  |  |  |  | clotting time, aPTT one-stage assay, FVIII deficient plasma, 50 ng FIXa, 0.23 µg antibody [1]: 104 s; clotting time, aPTT one-stage assay, FVIII deficient plasma, 50 ng FIXa, 0.34 µg antibody [1]: 104 s; clotting time, aPTT one-stage assay, FVIII deficient plasma, 50 ng FIXa, 0.45 µg antibody [1]: 102 s; clotting time, aPTT one-stage assay, FVIII deficient plasma, 50 ng FIXa, 0.9 µg antibody [1]: 102 s; clotting time, aPTT one-stage assay, FVIII deficient plasma, 50 ng FIXa, 1.35 µg antibody [1]: 103 s; clotting time, aPTT one-stage assay, FVIII deficient plasma, 50 ng FIXa, 1.8 µg antibody [1]: 102 s; clotting time, aPTT one-stage assay, FVIII deficient plasma, 50 ng FIXa, 2.25 µg antibody [1]: 103 s; clotting time, aPTT one-stage assay, FVIII deficient plasma, 50 ng FIXa, 4.5 µg antibody [1]: 103 s; clotting time, aPTT one-stage assay, FVIII deficient plasma, 50 ng FIXa, 9 µg antibody [1]: 102 s |
| monoclonal antibody 198/B1 (antibody, V domains shown) VH: EVQLQESGGGLVKPGGSLKLSCAASGFTFSSYTMSWVRQTPEKRLEWVATISSGGSSTYYPDSVKGRFTISRDNAKNTLYLQMSSLRSEDTAMYYCTREGGGFTVNWYFDVWGAGTLVTVSA VL: ENVLTQSPASLAVSLGQRATISCRASESVDSYGYNFMHWYQQIPGQPPKLLIYRASNLESGIPARFSGSGSRTDFTLTINPVEADDVATYYCQQSNEDPLTFGTGTRLEIKR |  |  |  |  |  |  |  |  |  |  |  |  |  |  |  |  |  |  |  |  | amidolytic activity of FIXa (cleavage of CH3SO2-D-CHG-Gly-Arg-pNA, OD405), 20 mU FIXa (Stago), various amounts of antibody [3]: ≥ 2 fold |
| irrelevant monoclonal antibody #8860 (antibody, V domains shown, Tested as the monoclonal antibody) VH: EVQLQQSGPELVKPGASVKISCKASGYAFSSSWMNWVKQRPGQGLEWIGRIYPGNGDTNYNGKFKGKATLTADKSSSTAYMQLSSLTSVDSAVYFCADGNVYYYAMDYWGQGTSVTVSS VL: QIVLTQSPASLAVSLGQRATISCRASKSVSTSGYSYMHWYQQKPGQPPKLLIYLASNLESGVPARFSGSGSGTDFTLNIHPVEEEDAATYYCQHSRELPRTFGGGTKLEIKR |  |  |  |  |  |  |  |  |  |  |  |  |  |  |  |  |  |  |  |  | binding result [4]: no binding |
